These results are taken from the DeepSol protein solubility set.

The data set is described as follows: soluble on expression in E. coli; label from the status in PepcDB or PDB records.
With “MGSSHHHHHHSSGLVPRGSMSTSWSDRLQNAADMPANMDKHALKKYRREAYHRVFVNRSLAMEKIKCFGFDMDYTLAVYKSPEYESLGFELTVERLVSIGYPQELLSFAYDSTFPTRGLVFDTLYGNLLKVDAYGNLLVCAHGFNFIRGPETREQYPNKFIQRDDTERFYILNTLFNLPETYLLACLVDFFTNCPRYTSCETGFKDGDLFMSYRSMFQDVRDAVDWVHYKGSLKEKTVENLEKYVVKDGKLPLLLSRMKEVGKVFLATNSDYKYTDKIMTYLFDFPHGPKPGSSHRPWQSYFDLILVDARKPLFFGEGTVLRQVDTKTGKLKIGTYTGPLQHGIVYSGGSSDTICDLLGAKGKDILYIGDHIFGDILKSKKRQGWRTFLVIPELAQELHVWTDKSSLFEELQSLDIFLAELYKHLDSSSNERPDISSIQRRIKKVTHDMDMCYGMMGSLFRSGSRQTLFASQVMRYADLYAASFINLLYYPFSYLFRAAHVLMPHESTVEHTHVDINEMESPLATRNRTSVDFKDTDYKRHQLTRSISEIKPPNL”, the “soluble on expression in E. coli” value was “soluble”.

For “MGSDKIHHHHHHVERRIFGLENEYGVTCTFRGQRRLSPDEVARYLFRRVVSWGRSSNVFLRNGARLYLDVGSHPEYATPECDNLLDLVAHDKAGERILEGLQIDAEQRLREEGIAGDIYLFKNNTDSAGNSYGCHENYLVARHGEFGKLADVLIPFLVTRQIICGAGKVLQTPRGALYCVSQRAEHIWEGVSSATTRSRPIINTRDEPHADAERFRRLHVIVGDSNMSETTTLLKLASTDLVLRMIEANVPMRDFTLENPIRAIREISHDMTGRRKVRLANGREASALEIQREYLERVQSFVDRTGTDATGKRVLELWQRTLEAVESGNLDLVAREIDWVAKYKLLERYRAKHGLSLSSPRVAQLDLTYHDIHRDRGLFYLLQQRGQMERVVSDLRIFEAKSVPPQTTRARLRGEFIKKAQEKRRDFTVDWVHLKLNDQAQRTVLCKDPFKAVDERVEKLIAGM”, the “soluble on expression in E. coli” value is listed as “not soluble”.

Take “MGSDKIHHHHHHMIYKVISKDEFRNFVDALVRANTSYGPRQVDTDRNGEPIYQFMPVSSASEIAFDYTVTTSSAKHFLMPFREELSKFSFRDGDWDQEVKYDAPPIVLVGLRPCDINAINILDEVMLKGPYPSPYYLARRKNTFIIGMDHLPLPDCFCRSMNRHTTDHGFNLFASDIGESYFLSINSSKAFNFLKEFETTEPTEEDDCKLIERRKLIKQSFKTNVEVTGLPVFLDLEFDSPIWKKWGDKCLNCGSCAMVCPTCYCYNVEEHFETNLESSSRQRRLYSCNLIDFAEVTGGHNFRPKNGDRLKYRYYHHYRGFAVNDNQQICVGCNRCGRACLAGINPKDVINDLRLEKESCVTCVSPSPAKT”: the “soluble on expression in E. coli” value is reported as “not soluble”.

As to “MSLIYSGKFRIGVQDEAALQMLHDPEKLGPCLPGVSSFERNDDGYSCKVRLDVSSMGSSYLSKISGKLAFSYLDSENRTIHVQGKGRIAGSSISFDLFISVNGGELIWKIDVNYGILIKMMGEEKIRDVTQANIDRSVKCLSSVLCQEGHHHHHH”, the “soluble on expression in E. coli” value was “soluble”.

For the sequence “MNTENPIEKPFRKTGDPVDLTSESPLHPRRKSRRIMVGPVPVGGGAPISVQSMTNTLTANVPATLQQIAELTAAGCDIVRVAVPSQDDADALPEICRKSPIPVIADIHFQSKYVFQAIDAGCAAVRVNPGNIRKFDEVGPDICKAATDAGISLRIGVNAGSLDKELYAKYGGPTPEALVASALKEAHMFEDVGFHDFKISVKHHDVITMVETYRLLASKGDWPLHLGVTEAGPAWQGTIKSCLAFGALLAEGIGDTIRVSLSAPPAEEVKVGCKLLEYMGLRPRKFDIISCPSCGRAQVDVIQLASAVTEGLKDVTAPIRVAVMGCIVNGPGEAREADLGVASGNGKGQIFIKGKVIKTVPEDQIVDTLLTIANDIAAQMEADGQVPVNSTGPVVVPIQHPGHLEHHHHHH”, the “soluble on expression in E. coli” value was “not soluble”.

Turning to “MMFLRQEDFATVVRSTPLVSLDFIVENSRGEFLLGKRTNRPAQGYWFVPGGRVQKDETLEAAFERLTMAELGLRLPITAGQFYGVWQHFYDDNFSGTDFTTHYVVLGFRFRVSEEELLLPDEQHDDYRWLTSDALLASDNVHANSRAYFLAEKRTGVPGL”, the “soluble on expression in E. coli” value is recorded as “soluble”.

On to “MSGQHRTRVGGVILAAGRSSRYESGNKLLATIDGKAVVRQVTETACKSSLSDAVAVLGHEKVAVAAALDGLSLSVQHNDEYATGQSASVRHGVEFARSAGWDAALFLLGDMPFVRVETIEELLEAYRTGTATVVVPEHEGRRGNPVLFDNCHFDSLASVSGDRGGRDIIETTEKTAFIEVSDPGVHWDIDTDADLAEFTDRRDSLLEHHHHHH”, for which the “soluble on expression in E. coli” value is reported as “not soluble”.

Regarding “MSNVLTEIDSQYPYMTKNEKKIAKFILNSPQKVIKMRSQDLASLLDISTSSVIRFSKKITDGGFHDLKINISKYVPKASSIYNVELMNNESTESLRTKLHTRTTRALNHANNELNDKTIDQICHCLKRSETIFIYGFGASFVVATDLYQKLSRIGLNIQLVQETHIFATLLATHNSNDSVILITNNGTQSEMQSMVKVIDDYHIPIITITSTRDNPVAQASNIVLTYGKTDENEMHMGATTSLFAQMFTIDILYYRYVALNYHASLDFITQSKMALDNYRKHLSNINFKH”, the “soluble on expression in E. coli” value is “not soluble”.

Regarding “MGSDKIHHHHHHMNTLASIQELARAIRNMIRTGIVVETDLDAGRCRVQTGGIYTDWLQWLTHRAGRSRTWWAPSIGEQVMILAVGGELDTAFVLPGIYSDDNPAPSASADAWHVEFPDGAVMSYEPETGALTVTGIKTADVTASDSVAVSVPVVLVKAETRVTLDTPEVVCTNKLTTGTLEVKQGGKMSGDIEHSGGAFTSNGVQVDKHGHGGIRRGDEWTEGTQ”, the “soluble on expression in E. coli” value was “not soluble”.

As for “MSKKFEGSVAPRERINISYVPKTDGQTAEVELPLNMLVVGDTGNTQETSSLDERQAVSVNKHNFGAVMAEAAIGLNFTVPATLKGSTTDDEMNVALNIKSLDDFSPDSVARQVPEVNKLLELREALTALKGPMGNLPAFRTQLQALLENEESREQLLKEIGQVSNK”, the “soluble on expression in E. coli” value was “soluble”.

For “MSLDPVGPISDEETSYYVRLQYNGEILPLFTKIEGIEYKKATDIHNPLKASFIAGGGAFGYKMDDIRVDVEGLYSQLNKNDVTGAAFNPDTVADSLTAISGLVNVYYDIAIEDMPITPYVGVGVGAAYISTPLKDAVNDQKSKFGFAGQVKAGVSYDVTPEVKLYAGARYFGSFGAHFDKDTAAASKDKGELKVLYSTVGAEAGVAFNFEGHHHHHH”, the “soluble on expression in E. coli” value is given as “not soluble”.

Turning to “MRPTITALVLTYNGERLLDRCLGSLAFCDRILVVDSFSTDATVAIAQAAGAEVLQRKWEGPGPQFAFALEKISDGWIVSLDQDEICSEELRDSILAATAADSGEAGYWIPRRSWYFDRFLKHSGWYPDHLLRLFRAGRMRVEVSGAHYSFHPDGETGTLTGDILHYPYESFRQHLDKVNDYAQKGADDLRAKGKRGGLCAGLCHGAGRFIRIYIIKRGFLDGRAGFINAIHGAFYAFLKHLRIEEGDWGRPFEHKLEHHHHHH”, the “soluble on expression in E. coli” value is recorded as “soluble”.

Consider “MSLERPLCISYIRFSKATQAEGSSLERQLQLSRTYAEEHGLVLDDKHSYQDLGKSAFTSEHVKEGEFGVFLEFVKQGRVPKGSVLLVESLDRLSRESVLTAFKQFQEILDAGIKIVTLSDKMEYTKEGFEANIGNIFISLGIMARANEESLRKSERICAAWRLKRKNLHNIKLTANCPGWLELTPDKKDFILKEDRVEIVKQIFELSLSGLGVKAISTILNKQKIEPFRSKIGWYQTTVRKILSNSAVIGEFQPHVFGSKHSKPVPDGELIKDYFPPIIDTDTFYAVQAKLKNGAHREGHHHHHH”, for which the “soluble on expression in E. coli” value is “soluble”.

With “MNNREIVQKLWNLCNVLRDDGITYHQYVTELTYLLFLKMMKETGQEYIIPEPYRWDVLAKKDGIELKTYYQQLLMALGQEENELLRQIYTDATSNIREPKNLEKIIRTIDALDWYNAKEEGLGALYEGLLEKNASELKSGAGQYFTPRVLIDVIVELVDPKPGERCHDPAAGTFGFMIAASRHVRAKTDDYFDLSEEEIRFQKYEAFSGVELVRDTHRLAVMNALLHDVHGDILLGDTLSPLGEQLKGYDVILTNPPFGTKKGGERATRTDFTFMTSNKQLNFLQHIYRALRPNGKARAAVVVPDNVLFEGGVGADIRRDLMDKCNVHTILRLPTGIFYAQGVKTNVLFFTRGETDTGNTKEVWVYDLRTNMPSFGKRNPLTKDHFAGFMKAYTAEDRHQVDDERWNVFTRDDIAKKGDSLDIGLIADESLSVYDNLPDPIDSAEEAVEKLELAISLLNEVIAELKAAEHPPRYEPAKTEMLHVAERLEVSER”, the “soluble on expression in E. coli” value is on record as “not soluble”.

Turning to “MEIVYKPLDIRNEEQFASIKKLIDADLSEPYSIYVYRYFLNQWPELTYIAVDNKSGTPNIPIGCIVCKMDPHRNVRLRGYIGMLAVESTYRGHGIAKKLVEIAIDKMQREHCDEIMLETEVENSAALNLYEGMGFIRMKRMFRYYLNEGDAFKLILPLTEKSCTRSTFLMHGRLAT”, the “soluble on expression in E. coli” value is listed as “not soluble”.

For the sequence “MGEVVKLVTFLGLGKYEESEIKINGNLLDGCVKNDDSQDIFCVRQSIFPLALIEYLNHIGKQVETIFFLTKTVKESKTWDECRRFLRSNIKDFEIPERRIFK”, the “soluble on expression in E. coli” value is reported as “not soluble”.

As for “MEWKGRDVISIRDFSKEDIEVVLSTAERLEKEMKEKGQLEYAKGKILATLFFEPSTRTRLSFESAMHRLGGSVIGFAEASTSSVKKGESLRDTIKTVEQYSDVIVIRHPKEGAARLAAEVADIPVINAGDGSNQHPTQTLLDLYTIKKEFGTIDGLKIGLLGDLKYGRTVHSLAEALAFYDVELYLISPELLRMPKHIVEELRERGMKIVETTKLEEVIGELDVLYVTRIQKERFPDEQEYLKVKGSYQVNLKILENVKDSLRIMHPLPRVDEIHPEVDKTKHAIYFKQVFNGVPVRMALLALVLGVI”, the “soluble on expression in E. coli” value is listed as “soluble”.

“MGSDKIHHHHHHNSISDSEVHVMVKTFEGHHVNRLEVLKNTWASDVSRIEYCSDKEDPAIPTINLGVDNTDRGHCAKTWEIFRRFLGSSGNGAKWLVVADDDTLMNFKRLKQMLELYDSGDKIIIGERYGYGFSLNGDSGYDYPTGGSGMIFTRSAVESLLAQCPSCIANTDPDDMTIGICALTAGIPIVHESRLHQARPLDYAPEYIKYPISFHKFTDIDPISVYYEYLVELEEYN”: the “soluble on expression in E. coli” value is reported as “not soluble”.

Turning to “MSLSETTQTSQSLYQALWNSADVLRSKMDANDYKSYLLGMVFYKYLSDKMLFFVAETMEEETESLDEALAVYRKYYEDEETHEDLLAVITDEMSYAIHPDLTFTALVERVNDGSFQLEDLAQGFRDIEQSDELYENLFEDIDLYSKKLGATPQKQNQTVAAVMKELAVLDVAGHAGDMLGDAYEYLIGQFATDSGKKAGEFYTPQPVAKLMTQIAFLGREDKQGFTLYDATMGSGSLLLNAKRYSRQPQTVVYFGQELNTSTYNLARMNMILHGVPIENQFLHNADTLDEDWPTQEPTNFDGVLMNPPYSAKWSASSGFMDDPRFSPFGKLAPKSKADFAFLLHGYYHLKQDNGVMAIVLPHGVLFRGNAEGTIRKALLEEGAIDTVIGLPANIFFNTSIPTTVIILKKNRTNRDVYFIDASKEFDKGKNQNIMTDAHIEKILNAYKSREDIDKFAHLASFEEIVENDYNLNIPRYVDTFEEEEVEPLTEIVAKINQTNATIESQTASLLDMLGQLHGTTPEADEELKAFVKAFKGEGHHHHHH”, the “soluble on expression in E. coli” value is reported as “soluble”.

Regarding “MGSDKIHHHHHHAAYGEDNHKKERHPDDRKINVGIRGGFNSSMFLVSDLKIKDVTIDEIQNNYKIGYFGALFMRLNMKRHFIQPEISYNISRCEISFDKLGSQHPDIEPDYASVSSTIHSIDFPLLYGYHVVKQGPYTMSLFAGPKLRYLWNKKNKITFENFDQQGIHEKLYPFNVSAVIGVSVNISRIFFDFRYEQGLHNLSKSVTYDNIDMEGRPEVSNITFRRRDNVLSFSLGVIF”, the “soluble on expression in E. coli” value was “not soluble”.
